Legend:
[1] = target: recombinant human tumor necrosis factor-α (human) (UniProt P01375); assay: cell-based or functional assay
[2] = target: recombinant human tumor necrosis factor-α (human) (UniProt P01375); assay: SPR, Biacore X100; antibody captured by goat anti-human IgG Fc on CM5 chip, TNFα as analyte

Chain of recombinant human tumor necrosis factor-α (human) (P01375 77-233 limits assumed): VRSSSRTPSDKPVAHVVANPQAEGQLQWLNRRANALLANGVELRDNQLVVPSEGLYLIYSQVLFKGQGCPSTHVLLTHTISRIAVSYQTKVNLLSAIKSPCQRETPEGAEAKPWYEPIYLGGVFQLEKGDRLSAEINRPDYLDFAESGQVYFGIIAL

Substance: Humira (adalimumab, purchased from Abbott Laboratories) (antibody)
- EC50(ng/mL), neutralization of TNFα killing effect on L929 cell [1]: 19.1 ng/mL
- IC50 (concentration at which 50% of the rhTNFα toxicity to L929 cells can be neutralized) [1]: 0.01 to 0.04 mg/L
- Ka [2]: 9.3e+09 M⁻¹
- Kd [2]: 0.108 nM

Source: patent publication US20120219547A1
